In publication PMC6349404, “Integrin alpha11 is an Osteolectin receptor and is required for the maintenance of adult skeletal bone mass” (eLife, 2019) one finds Kd data, which are given here for one molecule.

Holding throughout (assay): ELISA; microtiter well binding assay; plates coated with 10 nM recombinant human Osteolectin, Pro-Collagen 1α or BSA overnight at 4°C, blocked with 10 mg/ml BSA; 6xHis tagged integrins in TBS (50 mM Tris-Cl pH 7.5, 150 mM NaCl) with 1 mM MnCl2; bound integrin detected with anti-His tag antibody and HRP secondary, OD 450 nm
What all share (settings): both partners purified

The target of experiment [1] is T1, recombinant human integrin α10β1 (human, UniProt O75578 23-1122; P05556 21-728).
T1 construct: integrin α10, human, chain of the recombinant heterodimer; integrin β1, human, chain of the recombinant heterodimer; source: bought: R and D Systems

For experiment [2], the target named is T2, recombinant human integrin α4β1 (human, UniProt P13612 35-977; P05556 21-728).
T2 construct: integrin α4, human, chain of the recombinant heterodimer; integrin β1, human, chain of the recombinant heterodimer; source: bought: R and D Systems

Experiment [3] concerns the target T3, recombinant human integrin α11β1 (human, UniProt Q9UKX5 23-1141; P05556 21-728).
T3 construct: integrin α11, human, chain of the recombinant heterodimer; integrin β1, human, chain of the recombinant heterodimer; also called α11β1 integrin; source: bought: R and D Systems

For experiment [4], the target named is T4, recombinant human integrin α9β1 (human, UniProt Q13797 30-981; P05556 21-728).
T4 construct: integrin α9, human, chain of the recombinant heterodimer; integrin β1, human, chain of the recombinant heterodimer; source: bought: R and D Systems

Experiment [5] concerns the target recombinant human integrin αMβ2 (human, UniProt P11215 17-1104; P05107 23-700).

Bounds are passed on as bounds.

T1 sequence (O75578 23-1122, chain 1 of 2): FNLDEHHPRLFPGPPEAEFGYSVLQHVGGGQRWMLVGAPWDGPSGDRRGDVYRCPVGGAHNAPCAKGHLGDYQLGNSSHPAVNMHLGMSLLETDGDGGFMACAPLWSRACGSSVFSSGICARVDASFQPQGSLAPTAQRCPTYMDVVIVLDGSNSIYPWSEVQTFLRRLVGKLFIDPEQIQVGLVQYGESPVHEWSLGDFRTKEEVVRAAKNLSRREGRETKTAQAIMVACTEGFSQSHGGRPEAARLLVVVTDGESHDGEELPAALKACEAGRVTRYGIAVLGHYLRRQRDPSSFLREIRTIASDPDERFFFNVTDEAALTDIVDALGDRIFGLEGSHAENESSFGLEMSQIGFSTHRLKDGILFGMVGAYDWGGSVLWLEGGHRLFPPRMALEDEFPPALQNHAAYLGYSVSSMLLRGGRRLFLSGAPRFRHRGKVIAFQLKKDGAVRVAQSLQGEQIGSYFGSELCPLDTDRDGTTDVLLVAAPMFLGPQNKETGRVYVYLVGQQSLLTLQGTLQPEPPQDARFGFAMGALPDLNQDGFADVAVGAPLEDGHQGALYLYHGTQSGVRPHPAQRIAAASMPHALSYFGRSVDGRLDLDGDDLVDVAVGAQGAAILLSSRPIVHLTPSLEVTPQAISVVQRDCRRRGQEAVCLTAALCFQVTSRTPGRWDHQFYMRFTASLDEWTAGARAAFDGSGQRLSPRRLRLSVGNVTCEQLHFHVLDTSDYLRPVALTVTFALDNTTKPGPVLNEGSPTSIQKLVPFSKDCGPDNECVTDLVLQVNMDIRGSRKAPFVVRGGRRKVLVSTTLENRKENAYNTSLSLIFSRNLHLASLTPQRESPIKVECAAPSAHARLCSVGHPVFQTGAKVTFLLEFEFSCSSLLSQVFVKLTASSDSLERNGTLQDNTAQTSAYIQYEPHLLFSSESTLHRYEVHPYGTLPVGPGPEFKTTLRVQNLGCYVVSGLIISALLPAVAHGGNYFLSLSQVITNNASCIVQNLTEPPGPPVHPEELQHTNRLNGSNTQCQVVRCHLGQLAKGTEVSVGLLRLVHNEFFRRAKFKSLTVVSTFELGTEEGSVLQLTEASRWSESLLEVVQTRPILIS
T1 sequence (P05556 21-728, chain 2 of 2): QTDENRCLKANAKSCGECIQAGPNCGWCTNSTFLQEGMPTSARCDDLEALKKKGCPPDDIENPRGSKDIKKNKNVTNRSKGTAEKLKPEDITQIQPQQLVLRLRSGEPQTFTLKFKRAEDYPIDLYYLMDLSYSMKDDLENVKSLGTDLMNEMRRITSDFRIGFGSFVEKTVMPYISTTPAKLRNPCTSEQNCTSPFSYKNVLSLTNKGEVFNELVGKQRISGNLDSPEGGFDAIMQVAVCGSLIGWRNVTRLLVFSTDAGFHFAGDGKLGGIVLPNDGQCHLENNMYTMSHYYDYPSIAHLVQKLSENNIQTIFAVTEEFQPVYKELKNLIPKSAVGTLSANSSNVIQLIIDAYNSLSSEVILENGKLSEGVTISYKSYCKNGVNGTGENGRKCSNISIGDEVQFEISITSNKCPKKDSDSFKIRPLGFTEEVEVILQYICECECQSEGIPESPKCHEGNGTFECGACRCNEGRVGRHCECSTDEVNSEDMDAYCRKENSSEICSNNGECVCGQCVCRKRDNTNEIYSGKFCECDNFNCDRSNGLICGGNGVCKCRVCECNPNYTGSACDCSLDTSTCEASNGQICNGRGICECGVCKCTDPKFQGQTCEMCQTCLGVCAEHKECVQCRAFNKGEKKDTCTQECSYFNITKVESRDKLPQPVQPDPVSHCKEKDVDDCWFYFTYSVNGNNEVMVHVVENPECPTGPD
T4 sequence (Q13797 30-981, chain 1 of 2): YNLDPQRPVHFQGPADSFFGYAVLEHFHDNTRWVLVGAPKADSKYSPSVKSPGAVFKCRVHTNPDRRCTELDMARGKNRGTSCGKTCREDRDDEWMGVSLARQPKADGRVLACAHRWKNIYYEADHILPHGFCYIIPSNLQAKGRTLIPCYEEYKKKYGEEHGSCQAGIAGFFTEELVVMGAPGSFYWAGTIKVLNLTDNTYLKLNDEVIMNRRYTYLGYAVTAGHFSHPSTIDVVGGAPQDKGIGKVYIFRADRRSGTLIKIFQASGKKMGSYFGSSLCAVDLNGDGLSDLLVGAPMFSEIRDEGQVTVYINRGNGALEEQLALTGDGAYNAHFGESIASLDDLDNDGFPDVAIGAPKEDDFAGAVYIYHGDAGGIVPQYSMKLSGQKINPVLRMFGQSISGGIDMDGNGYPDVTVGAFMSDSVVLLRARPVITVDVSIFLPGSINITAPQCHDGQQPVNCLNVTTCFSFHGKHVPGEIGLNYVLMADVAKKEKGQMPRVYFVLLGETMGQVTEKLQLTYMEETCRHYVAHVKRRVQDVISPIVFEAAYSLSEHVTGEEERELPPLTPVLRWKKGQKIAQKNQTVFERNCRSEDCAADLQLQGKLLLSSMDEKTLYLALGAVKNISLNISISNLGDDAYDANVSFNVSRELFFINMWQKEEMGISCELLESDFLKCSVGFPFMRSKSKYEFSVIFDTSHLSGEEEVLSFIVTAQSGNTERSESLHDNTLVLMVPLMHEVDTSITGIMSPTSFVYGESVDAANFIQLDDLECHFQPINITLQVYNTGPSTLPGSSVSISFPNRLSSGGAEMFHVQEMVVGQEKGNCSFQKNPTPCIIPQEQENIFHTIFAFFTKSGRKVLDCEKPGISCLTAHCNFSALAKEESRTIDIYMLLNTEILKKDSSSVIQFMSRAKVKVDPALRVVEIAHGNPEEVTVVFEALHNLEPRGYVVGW
T4 sequence (P05556 21-728, chain 2 of 2): as the sequence (P05556 21-728, chain 2 of 2) above
T2 sequence (P13612 35-977, chain 1 of 2): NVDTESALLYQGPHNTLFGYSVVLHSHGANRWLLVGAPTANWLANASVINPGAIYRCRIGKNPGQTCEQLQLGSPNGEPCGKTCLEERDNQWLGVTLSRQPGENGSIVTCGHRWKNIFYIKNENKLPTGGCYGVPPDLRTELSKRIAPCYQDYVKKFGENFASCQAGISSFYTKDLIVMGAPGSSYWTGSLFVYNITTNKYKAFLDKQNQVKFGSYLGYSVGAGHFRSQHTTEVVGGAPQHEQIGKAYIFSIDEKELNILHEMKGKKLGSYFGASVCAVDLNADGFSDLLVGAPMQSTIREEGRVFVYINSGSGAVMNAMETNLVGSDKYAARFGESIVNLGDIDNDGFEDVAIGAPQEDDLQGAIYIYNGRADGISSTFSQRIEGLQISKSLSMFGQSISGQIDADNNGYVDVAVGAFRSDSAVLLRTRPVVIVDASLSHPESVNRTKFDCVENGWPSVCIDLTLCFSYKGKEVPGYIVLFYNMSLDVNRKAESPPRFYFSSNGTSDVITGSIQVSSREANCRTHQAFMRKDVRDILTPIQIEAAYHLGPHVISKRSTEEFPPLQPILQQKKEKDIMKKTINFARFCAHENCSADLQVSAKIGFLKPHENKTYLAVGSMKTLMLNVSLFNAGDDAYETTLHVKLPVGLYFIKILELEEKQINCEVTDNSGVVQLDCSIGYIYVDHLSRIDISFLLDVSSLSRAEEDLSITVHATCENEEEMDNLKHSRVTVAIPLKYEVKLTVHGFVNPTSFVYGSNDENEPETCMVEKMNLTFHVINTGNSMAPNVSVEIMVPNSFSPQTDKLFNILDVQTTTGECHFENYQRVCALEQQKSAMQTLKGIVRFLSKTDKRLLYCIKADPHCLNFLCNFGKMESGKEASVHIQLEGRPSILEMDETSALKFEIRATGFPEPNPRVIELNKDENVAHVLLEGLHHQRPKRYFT
T2 sequence (P05556 21-728, chain 2 of 2): as the sequence (P05556 21-728, chain 2 of 2) above
T3 sequence (Q9UKX5 23-1141, chain 1 of 2): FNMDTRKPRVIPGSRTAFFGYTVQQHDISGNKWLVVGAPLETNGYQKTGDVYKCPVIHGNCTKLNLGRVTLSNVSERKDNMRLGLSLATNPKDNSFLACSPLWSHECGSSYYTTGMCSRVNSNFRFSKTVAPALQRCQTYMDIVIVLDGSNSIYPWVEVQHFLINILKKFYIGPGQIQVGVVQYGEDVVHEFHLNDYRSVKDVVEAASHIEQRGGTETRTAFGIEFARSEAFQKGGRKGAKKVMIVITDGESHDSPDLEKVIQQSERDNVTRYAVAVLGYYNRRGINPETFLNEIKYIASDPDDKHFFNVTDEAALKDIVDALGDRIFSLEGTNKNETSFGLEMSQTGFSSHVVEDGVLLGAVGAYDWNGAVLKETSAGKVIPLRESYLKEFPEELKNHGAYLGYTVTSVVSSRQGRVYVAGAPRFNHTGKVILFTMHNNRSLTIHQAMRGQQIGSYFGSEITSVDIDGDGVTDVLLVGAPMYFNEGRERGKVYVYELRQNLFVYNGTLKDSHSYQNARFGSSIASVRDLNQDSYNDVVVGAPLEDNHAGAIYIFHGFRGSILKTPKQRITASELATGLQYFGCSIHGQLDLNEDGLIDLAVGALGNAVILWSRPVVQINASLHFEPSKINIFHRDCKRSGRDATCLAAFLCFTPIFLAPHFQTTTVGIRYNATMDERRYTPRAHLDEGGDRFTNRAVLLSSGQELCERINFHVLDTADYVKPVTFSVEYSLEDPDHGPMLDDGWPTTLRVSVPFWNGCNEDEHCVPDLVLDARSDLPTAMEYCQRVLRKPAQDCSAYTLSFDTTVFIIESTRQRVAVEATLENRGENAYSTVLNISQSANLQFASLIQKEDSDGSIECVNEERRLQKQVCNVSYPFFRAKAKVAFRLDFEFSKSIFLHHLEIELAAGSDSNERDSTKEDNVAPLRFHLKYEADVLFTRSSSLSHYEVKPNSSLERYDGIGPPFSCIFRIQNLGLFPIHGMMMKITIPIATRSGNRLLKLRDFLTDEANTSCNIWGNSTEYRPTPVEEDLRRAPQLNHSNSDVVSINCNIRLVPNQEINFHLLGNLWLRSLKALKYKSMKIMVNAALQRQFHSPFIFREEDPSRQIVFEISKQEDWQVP
T3 sequence (P05556 21-728, chain 2 of 2): as the sequence (P05556 21-728, chain 2 of 2) above

B1: recombinant human Osteolectin (ligand, UniProt Q9Y240 22-323, looked up)
chain: ARGAEREWEGGWGGAQEEEREREALMLKHLQEALGLPAGRGDENPAGTVEGKEDWEMEEDQGEEEEEEATPTPSSGPSPSPTPEDIVTYILGRLAGLDAGLHQLHVRLHALDTRVVELTQGLRQLRNAAGDTRDAVQALQEAQGRAEREHGRLEGCLKGLRLGHKCFLLSRDFEAQAAAQARCTARGGSLAQPADRQQMEALTRYLRAALAPYNWPVWLGVHDRRAEGLYLFENGQRVSFFAWHRSPRPELGAQPSASPHPLSPDQPNGGTLENCVAQASDDGSWWDHDCQRRLYYVCEFPF
notes: Osteolectin/Clec11a, human; cDNA cloned into pcDNA3 with a C-terminal 1XFlag-tag; secreted into the culture medium; also called rhOln; Clec11a
With B1, the Kd in experiment [1] was 0.3 nM; in experiment [2] it was above 100 nM; in experiment [3], 0.3 nM; in experiment [4] it was above 100 nM; in experiment [5], above 100 nM.

What is called Kd is a measure of binding affinity in units of concentration.
